Target: FITC-Dsn1 560-572 synthetic peptide (S. cerevisiae) (S. cerevisiae)
Test: fluorescence polarisation

Kd: 12 µM
Substance: S. cerevisiae Spc24 155-213/Spc25 132-221 heterodimer (from UniProt Q04477 155-213; P40014 132-221) (complex)

— article PMC5856483
